Assay results: PMC7721913 (The Journal of Cell Biology, 2020)

Molecular target: KLC1 TPR1-6 fragment (human KNS2 residues 205-501) (human, UniProt Q07866 205-501)
Experiment: ITC

KLC1 TPR1-6 fragment (human KNS2 residues 205-501), sequence (Q07866 205-501): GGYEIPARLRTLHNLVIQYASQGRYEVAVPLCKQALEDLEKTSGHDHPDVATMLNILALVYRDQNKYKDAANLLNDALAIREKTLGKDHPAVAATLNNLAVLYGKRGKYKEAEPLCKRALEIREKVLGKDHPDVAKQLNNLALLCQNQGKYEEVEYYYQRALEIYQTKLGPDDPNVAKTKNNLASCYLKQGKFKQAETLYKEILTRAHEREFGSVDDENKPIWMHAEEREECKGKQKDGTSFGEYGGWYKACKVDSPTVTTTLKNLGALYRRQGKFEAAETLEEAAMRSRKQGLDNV

Kd: 3.83 ± 2.31 µM
dH: -8.58 ± 1.83 kJ/mol
stoichiometry N: 0.964 ± 0.143
Binder: ESEMEDAYHEHQANLLR [WT SFPQ peptide spanning the Y-acidic motif]
